In PMC3258140 (Nucleic Acids Research, 2011):

Target: the molecule itself
Assay: crystal structure

B1: Thermotoga maritima Mre11^(H94Q, F291S) (residues L7M-385), nuclease deficient (enzyme)
chain: MKILHTSDWHLGVTSWTSSRPVDRREELKKALDKVVEEAEKREVDLILLTGDLLHSRNNPSVVALHDLLDYLKRMMRTAPVVVLPGNQDWKGLKLFGNFVTSISSDITFVMSFEPVDVEAKRGQKVRILPFPYPDESEALRKNEGDFRFFLESRLNKLYEEALKKEDFAIFMGHFTVEGLAGYAGIEQGREIIINRALIPSVVDYAALGHIHSFREIQKQPLTIYPGSLIRIDFGEEADEKGAVFVELKRGEPPRYERIDASPLPLKTLYYKKIDTSALKSIRDSCRNFPGYVRVVYEEDSGILPDLMGEIDNLVKIERKSRREIEEVLRESPEEFKEELDKLDYFELFKEYLKKREENHEKLLKILDELLDEVKKSEA
binding result: binds
